PMC8230641

Tests used:
Test in all cases: native gel or EMSA
[1] = biological target: BG505-NtCC Env trimer (NFL variant with the N-terminal cysteine-containing coupling tag CAAC and (G4S)3 linker) (HIV-1 (BG505))
[2] = biological target: BG505-NFL Env trimer (native flexible linker variant, C-terminal hexahistidine tag) (HIV-1 (BG505))
[3] = biological target: BG505-SOSIP Env trimer (BG505 SOSIP.664 sequence, mini-tPA signal sequence, C-terminal hexahistidine tag) (HIV-1 (BG505))
[4] = biological target: ConC-SOSIP Env trimer (stabilized HIV-1 clade C consensus, ConCv5 KIKO, with G473T) (HIV-1 clade C consensus)
[5] = biological target: ConC-NtCC Env trimer (stabilized HIV-1 clade C consensus NFL variant with the N-terminal coupling tag CAAC and (G4S)3 linker, with G473T) (HIV-1 clade C consensus)
[6] = biological target: ConC-NFL Env trimer (stabilized HIV-1 clade C consensus, native flexible linker variant, with G473T) (HIV-1 clade C consensus)

BG505-NtCC Env trimer (NFL variant with the N-terminal cysteine-containing coupling tag CAAC and (G4S)3 linker) (domain or fragment)
stoichiometry N [1]: 3

BG505-NFL Env trimer (native flexible linker variant, C-terminal hexahistidine tag) (domain or fragment)
stoichiometry N [2]: 3

BG505-SOSIP Env trimer (BG505 SOSIP.664 sequence, mini-tPA signal sequence, C-terminal hexahistidine tag) (complex)
stoichiometry N [3]: 3

ConC-SOSIP Env trimer (stabilized HIV-1 clade C consensus, ConCv5 KIKO, with G473T) (complex)
stoichiometry N [4]: 3

ConC-NtCC Env trimer (stabilized HIV-1 clade C consensus NFL variant with the N-terminal coupling tag CAAC and (G4S)3 linker, with G473T)
stoichiometry N [5]: 3

ConC-NFL Env trimer (stabilized HIV-1 clade C consensus, native flexible linker variant, with G473T)
stoichiometry N [6]: 3
